This assay has as its target T1, recombinant human proprotein convertase subtilisin/kexin type-9 (rhPCSK9) (human, UniProt Q8NBP7 31-692, limits assumed).
T1 construct: Elsewhere it is called His-rhPCSK9; also called recombinant hPCSK9; recombinant human PCSK9
Description: surface plasmon resonance, direct binding analysis between rhPCSK9 and CAP1 (FIG. 1E). For orientation: In SPR one partner is held on a chip, and binding of the other changes the refractive index at the surface.

1 molecule from US20230159601A1 (SEOUL NATIONAL UNIVERSITY HOSPITAL, published 2023) can be followed below.

T1 sequence (Q8NBP7 31-692 limits assumed): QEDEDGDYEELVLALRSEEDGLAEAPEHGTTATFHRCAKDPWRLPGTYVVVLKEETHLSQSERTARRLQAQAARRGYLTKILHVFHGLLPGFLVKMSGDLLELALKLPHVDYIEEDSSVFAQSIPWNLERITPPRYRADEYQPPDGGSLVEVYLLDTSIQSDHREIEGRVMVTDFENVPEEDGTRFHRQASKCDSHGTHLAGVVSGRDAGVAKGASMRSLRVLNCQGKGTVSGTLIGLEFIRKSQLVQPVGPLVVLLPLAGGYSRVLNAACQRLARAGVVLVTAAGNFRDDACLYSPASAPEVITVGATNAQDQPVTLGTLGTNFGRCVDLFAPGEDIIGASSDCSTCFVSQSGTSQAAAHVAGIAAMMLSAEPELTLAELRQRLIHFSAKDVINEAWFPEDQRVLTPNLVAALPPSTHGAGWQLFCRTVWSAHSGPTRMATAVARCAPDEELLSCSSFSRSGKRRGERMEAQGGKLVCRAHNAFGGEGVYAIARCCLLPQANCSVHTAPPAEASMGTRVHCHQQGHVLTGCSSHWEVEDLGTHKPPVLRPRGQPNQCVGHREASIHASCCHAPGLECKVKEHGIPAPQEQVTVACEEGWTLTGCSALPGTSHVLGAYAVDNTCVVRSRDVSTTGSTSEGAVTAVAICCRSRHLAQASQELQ

B1: human adenylyl cyclase-associated protein 1 (CAP1), wild type (other)
chain: MADMQNLVERLERAVGRLEAVSHTSDMHRGYADSPSKAGAAPYVQAFDSLLAGPVAEYLKISKEIGGDVQKHAEMVHTGLKLERALLVTASQCQQPAENKLSDLLAPISEQIKEVITFREKNRGSKLFNHLSAVSESIQALGWVAMAPKPGPYVKEMNDAAMFYTNRVLKEYKDVDKKHVDWVKAYLSIWTELQAYIKEFHTTGLAWSKTGPVAKELSGLPSGPSAGSGPPPPPPGPPPPPVSTSSGSDESASRSALFAQINQGESITHALKHVSDDMKTHKNPALKAQSGPVRSGPKPFSAPKPQTSPSPKRATKKEPAVLELEGKKWRVENQENVSNLVIEDTELKQVAYIYKCVNTTLQIKGKINSITVDNCKKLGLVFDDVVGIVEIINSKDVKVQVMGKVPTISINKTDGCHAYLSKNSLDCEIVSAKSSEMNVLIPTEGGDFNEFPVPEQFKTLWNGQKLVTTVTEIAG
notes: also called hCAP1; wtCAP1
For B1, the Kd (commonly the concentration at which binding is half-saturated) stood at 1010 nM.
